From the DeepSol protein solubility set

Assay: soluble on expression in E. coli; label from the status in PepcDB or PDB records
In the case of “MGSDKIHHHHHHMIEELAREIVKRFPRNHKETDPFRVLISTVLSQRTRDENTEKASKKLFEVYRTPQELAKAKPEDLYDLIKESGMYRQKAERIVEISRILVEKYGGRVPDSLEELLKLPGVGRKTANIVLWVGFKKPALAVDTHVHRISNRLGWVKTRTPEETEEALKKLLPEDLWGPINGSMVEFGRRICKPQNPLCEECFLKNHCEFYRRRGKGEVRNRTER”, the “soluble on expression in E. coli” value is reported as “not soluble”. In the case of “MNQEKIADLKNWMHQEKIDFTYISDPGHIAYFSGYESEPHERVLALFIAADDQSFLFTPALEVEDAEKSSWTYPVYGYLDSENPWEKIAALLNKRTQGTPRFALEKQALSLARFDQLKTYFPASDFSHDVTPLIEKLQLIKTEPEIQRLLEAGSWADVAFEIGFKAIQAGVAEQEIVAEIEYQLKRQGIRSMSFDTLVLTGKNGASPHGVPGETKIEPHDLVLFDLGVVHNGYCSDATRTVSYLEPSDFQKEIYGIVLEAQLAATEAVKPGVTAGELDDIARGVITKAGYGEYFNHRLGHGIGTTVHEYPSLVHGNDLVIEEGMCFSIEPGIYIPGKVGVRIEDCLHVTKTGSEPFTKTTKELQIIQ”, the “soluble on expression in E. coli” value is reported as “not soluble”. In the case of “MEKDDATASFSPSFSTYSGDRLVEIAERVCYKEKSDAEFEFSTAATSSSGDGGLVFPVFNKNLISGDVSPEKVIPLKDLFLRERNDQQPPQQTYSSSSDEEEEDDEFDSIPSEIYCPWTPARSTADMSPSGGCRKSKSTGSSSTSTWSTKRWRLRDFLKRSKSDGKQSLKFLNPTNRDDDDESSKSKKKVSVSVTVSAHEKFYLRNKAIKEEDKRKSYLPYKQDLVGLFSNIHRYGKTFPPF”, the “soluble on expression in E. coli” value is reported as “not soluble”. In the case of “MGHHHHHHSHMGDSRRDVLHEPAIALLSSPQTQSRLQIDAFIARRCWGSQWDITGYIHQQDFPTAVFIGFSNEFNICIPHPFTEWLQCVRKYSQSWGVRKGQRHIRYGMCSERTHHLSRTYSSLLEREEKLAFYGVLTMCQIWSET”, the “soluble on expression in E. coli” value is reported as “not soluble”. With “MGSDKIHHHHHHAATYQVKKLMGFRHPTSYYAKSAKSGYLWNKSHTKRLHNLKNYPKTTWYATAKYSMKSVRNSGTYLKVTNGTGKAKGYVWTGYLKKGVNPANPNGTLTDPFGAAMSTYNVDDNLNKQLLNLFPGTIPDEPLQLAADFIFANAGANPDDYTSVIEELVGAENEPSVFRLSSDKRIQKNQNFLSFQRNSLKEELVTKHKKFTSFKGYRIGAYAFPKHDKRYGESMILLLPSN” the “soluble on expression in E. coli” value was “not soluble”. In the case of “MGSDKIHHHHHHMRQLLTYDLMESMRVTNQWMGASARALCSYPQLGLAANPFIQLTAAWGEVAERSFARMAAKPDWGISSIPGADGRDHVISIEPVMERAFGDLIRFDVQGREPTGRKILLVAPMSGHYATLLRKTVLSLLPDADVYITDWHNARDIPVSAGKFDIEDYTHYLVDFMREMGPDTNVIAVCQPAPLALAATAYLAEEDPKAQPRTLTLIGGPIDPDAAATDVTDFGRRVTMGHLEKFVVQRVGFKYAGAGRMVYPGIQQLASFMAMNAETHAKAFSDQVVAVSKGEASDHDKHNVFYDEYLAVMDMTAEFYLSTVERIFKNREIAKNTFVVDGKPVDIGKITSVAVKTVEGGKDDISAPGQCVAALDMLTGLPEEKKANYIEPDAGHYGIFAGKSWRNNIRPLVLEFIDANSGIKTPAKRAKPKLVEDPPVENVAV”, the “soluble on expression in E. coli” value is reported as “not soluble”. For “MSLSVFDLFKIGIGPSSSHTVGPMRAAARFAEGLRREGLLEATASIKVELYGSLGATGKGHGSDKAVLLGLEGEQPDTVDTAAIPARLDAIRSSGELRLLGERPIRFVEKEHLALIRKPLAYHPNGMIFRAFDAAGLQVRSREYYSVGGGFVVDDEAAGLDRIVEDRTPLAFPFKTARQLLDHCAREGLSISQLMAENEKAWRPAEETRTGLLRIWQVMQDCVEAGCRNEGIMPGGLKVRRRAAALHRQLCQRPEAGLRDALSVLDWVNLYALAVNEENASGGRVVTAPTNGAAGIIPAVLHYYARFIPGADDDGVVRFLLTAAAIGILYKENASISGAEVGCQGEVGVACSMAAGALCEVLGGSVQQVENAAEIGMEHNLGLTCDPVGGLVQVPCIERNAMASVKAINAARMALRGDGQHFISLDKVIRTMRQTGADMKSKYKETARGGLAVNIIEC”, the “soluble on expression in E. coli” value was “not soluble”. For “MINRTLKQVEQMINGTGLAEQYEGITIQGVSIDTRKIEKGNLYVPIQGERFDGHAFVDKAVENGAVATLWVKDVANPPENLPVIFVEDTLSALQMLAKNYRDQLDVKVIGVTGSNGKTSTKDIVTSLLATKFKVQKTEGNFNNHIGLPLTILNLEENTEVAVLEMGMSSRGEIEFLSKLARPNAAIITNIGEAHLMDLGSREAIAEAKLEIVTGLQEGGVFVYNGDEPLLTNRVPEMNLIAETVTFGDARANDYYPTTVTLQATGTHFKMNREENISFYLPVLGKHNVYNTLASMAIAKYFGVTWEEMKEGLVTLQMTGMRMEIVKTDSGLTIINDAYNASPTAMEAAFHLMNGLDGFSKKIVVLGDMLELGDQEVQFHYEVGKLIDPAKISYVFTYGKLGAQIAEGAKINFPNERVKAYDNKEELVKELQAVVDTKDVVLVKASRGMKLEEVITMLK”, the “soluble on expression in E. coli” value was “not soluble”. For “KMNRKPTTKIISICLKKATGHVAEALGVEKATEVIVIERLRSLDNMPAIFEIDYFRKEDQFMLDLELTDTSLLDILRQYRGVIASYFDNIIEIALADEKLAEALAISEEEALVKINQTVVDNDNQILYFNEQYILSESYKVAIRSYNK”, the “soluble on expression in E. coli” value was “soluble”. With “MSLKILDCTLRDGGYYTNWDFNSKIVDAYILAMNELPIDYLEVGYRNKPSKEYMGKFGYTPVSVLKHLRNISTKKIAIMLNEKNTTPEDLNHLLLPIIGLVDMIRIAIDPQNIDRAIVLAKAIKTMGFEVGFNVMYMSKWAEMNGFLSKLKAIDKIADLFCMVDSFGGITPKEVKNLLKEVRKYTHVPVGFHGHDNLQLGLINSITAIDDGIDFIDATITGMGRGAGNLKMELLLTYLNKHHGLNVDFNVLGNIITTFTPLLEKYQWGTNLPYMLSGANNIPQKEVMDWVTNRVYSFNSIIRALDNRKNKMEDNAKYPLLNIKNKFDRVVIIGGGFNAIEHKEAIKSFIETHTNTAIIFATARYAREYLDVNAPHFYCLVGNEGHRLTHNINPQNLSGICVLPPYPRPMGTEVPEYAKNVTFELENITFIDQYKDSVTTIALQLAILLTDQDIYLVGYDGYPGNVLSEKEMALTNENRTIFATYTTISGKILKSLTPSIYKEIEVVSVYQFEGHHHHHH” the “soluble on expression in E. coli” value was “soluble”. For “MRRFLTLTVALGFLSACEVSDPGPVAPLPKVPDSPPMSASAAQSAFASVSARVRPVAVRECQQRTQGANCDFKIQIDPDPKAPVNAYQTVGKNGQPLIIFTRSMIATARNADELAFVMGHEAAHHIRGHLARQNASAIAGAVILGGLVGLAGGGASTIDAATQIGASVGARTYSKEYELEADELGTVITHKAGYNPLVGAHFFSRIPDPGDRFLGSHPPNAARIQTVQRTAGSLGLTQLEHHHHHH”, the “soluble on expression in E. coli” value was “not soluble”. With “EPMQVVKQRRDAALNALVSGVPFIRFLNITFDRRGDELTGVLNFDDKLIGNPFLPAIHGGVTAAFLEVTAVITLSWAHLFERIESGDLAPEDILTDENMRFPKTIDFTIDYLRSGLPRDAYARAYISRAGRRYASVRVEAWQDHHDKLYAQGTGHFLMP” the “soluble on expression in E. coli” value was “not soluble”. For “DLPGVVIFLHGVNDPGASYESVETGLCQGVNERLDRPDLVPGRYGGKYKEAGNVPYEKRDSDQKVILDDPDTYLYRRDASDPKTHSLLIPFYWGHRAAPDQIKRDDAGDPFRMRNQFQDINGNRLDRHFAKAGGFIANATNNIPDVYGEGFRPNLKSIALETFKPDNALYFGHSPARHYCVLAAHRLAMLIREIRRVSPDETITIMGHSQGTIVTLLAQALLVDGGDRCADTFIMVDTPYCVLPGNTPKDQDTFSTLVGIVTAITNMPHTQPAMSELRDAKTYCGRSGSRWLPTQGIRKNKVGSMTVFPERDNRGKVYLYFCPDDTTVSLDDVQ”, the “soluble on expression in E. coli” value was “not soluble”. In the case of “MSFDKQNLIWIDLEMTGLDPEKERIIEIATIVTDKNLNILAEGPVLAVHQSDELLNKMNDWCQKTHSENGLIERIKASKLTERAAELQTLDFLKKWVPKGASPICGNSIAQDKRFLVKYMPDLADYFHYRHLDVSTLKELAARWKPEILEGFKKENTHLALDDIRESIKELAYYREHFMKLDLEHHHHHH”, the “soluble on expression in E. coli” value is reported as “soluble”. For “MPADRYATGNGFTGIIRTRHQTFKRHRSAHRRNGQNPIGLPARSRWQPAGNQQLLIFRRLMQNKKQPAQAVFLAASLTPTAAPSSLPVGKR”, the “soluble on expression in E. coli” value was “not soluble”. With “SLPNASRVVIVAGEESGDHHAAELVKQLKAVYPDLEISGIGGKHLRAAGVHLISDLTRYAVTGLTEIIPFLKIFRKAFQDIKQHLSTQKPDLLILVDYPAFNLRLAKYAKKKLGLKIIYYISPQIWAWKGKRIHLIKDCIDKMAVIFPFEKTIYENAGVPVSFVGHPLVKKIAAAKDKHSSRTSLGLPLNEPIIALLPGSRHSEIERHIPILVNTAKLLTLDSPKLRFVVPIAGTINPDKVKAYFSNQNLTVTFIQGQAIECMSAADFVIVASGTASLECALLEKPMCIIYKSSFLTYVAAMYFIKVKFLGLCNLLANKMMVPEFLQYDCNAIELSRYISNFHNNPNQPESMINQLAKLKESLSSSQADCSLFDLVVAELPEKNA” the “soluble on expression in E. coli” value was “not soluble”. With “MGSDKIHHHHHHMRLFKSLKNPKKTDAKLPKKSSGLNNRAAIGIDIDQHSIKMVQLSGRSLNQIQLEKYVIAKLPKNIIQGNKVQNYDQLVTYLQQAYAKLGTSCKNIVASVPQNLATIEQLTYTAKDAELDLQGFVESSISEASSISLEEANYDYQVLSQSAVGEAVLSVASRKDEIEPLIDAFNAAGMKLSALDVDIFGQYNAYALWINHFAPELADEKVAIFGVYAAQTYALVIQDGKILYKQETSVSEEQLNQLIQRTYQVTAEKAEEIINSPQKPSDYQESVANYFNQQITQEIQRVLQFYYTTQTADDMTDIKHILLTGEAVRQKGIAQTVASQTNADVQCVHPARYFANDLKTDEQQFELDAPTLTKAFGLAVRGL” the “soluble on expression in E. coli” value was “not soluble”. In the case of “MENRESAQRPHERLDAWRDSMELVEMIYRLTEVFPDQERYGLTAQLRRAAVSIPSNIAEGAARRSTPDYSRFLSIARGSLSELDTQVQIAARLGYSRSEDDQSVRRQVDLVFAKLTALMNALRRRGAA”, the “soluble on expression in E. coli” value is reported as “soluble”. With “MAHHHHHHMSQLSASPREEPVGIPELFLQYLKAKDLKDQLAIVRAHPVLFTDDVVAALKDARAQMNETFVEVKETCRVIDAVSGSLQYTGTSVQLQQTVAKELLDEDAILKKFATSLAGLLRARETAGPAAPSTISSLATASRVSSSLGAGKSHSPGAWFTQPSLVFSVLTFLSAEEIFITAENVCRAWQTWLFLPDMSRFFWVGCVQREFPEQLQVLLQTAGDDLYQSDWRSLAMLCVTEGEQAAEAEEAEEAGDGGAVRGVVPFL” the “soluble on expression in E. coli” value was “not soluble”. For “MAFICELDEQWSYVGSKARQHWLGYAYNTKTGGVLAYTFGPRTDQTCRELLALLTPFNIGMLTSDDWGSYGREVPKNKHLTGKIFTQRIERNNLTLRTRIKRLGRKTICFSRSVEIHEKVIGAFIEKHMFYLEHHHHHH”, the “soluble on expression in E. coli” value was “soluble”. For “MAHHHHHHMMAHRCAFQTIASPALTQREVEFTKSAWIAGLRPDQRGAQQLREVNVDFPLLSRDVSCVRCGGTIVTAAIACELVEPFPCRPKHGIIDFSVRQPYTERDSSAKTAELKKLTAFLERLIKGGGVVDTEGLCVLPGRRVWSISVDVTVLNDEGNVTDVAVWATVAVLLHYRRPELTIRGDSVILHPTHERDPVPLSIHHTPLSFSFAITMAPGDRNKLARGRRDSQEALEVVVDPTFAEATAASSSVVVAVNAEGQVCSVSKSEGSCIHLNEVNHCMETASLLAPHILSLIRDAMAAHDKRRQEVLKRMFLWAQKRSGVTSEATEPEPAKKLKTET”, the “soluble on expression in E. coli” value was “not soluble”.
